Results on one molecule are retold here after US20120093837A1 (CELL SIGNALING TECHNOLOGY INC A, published 2012).

The target of experiment [1] is T1, human EGFR with E746-A750 deletion (human, UniProt P00533 25-1210).
T1 construct: Endogenous mutant EGFR of HCC827 and H1650 cells and of NSCLC tumor samples; also called EGFR (E746-A750del); dEGFR
Description: IHC on paraffin-embedded xenografts and cell pellets. How it is done:
To test the specificity of binding of the rabbit monoclonal antibodies described in Example 1, xenografts were prepared of human cancer cells in nude mice.
For […] analysis, all analyses were performed on formalin-fixed, paraffin-embedded blocks. Serial 4-um-thick tissue sections were cut from TMAs for immunohistochemistry study. The slides were baked at 55° C. overnight, then deparaffinized in xylene and rehydrated through a graded series of ethanol concentrations. Antigen retrieval (microwave boiling for 10 minutes in 1 mM EDTA) was performed. Intrinsic peroxidase activity was blocked by 3% hydrogen peroxide for 10 min. 5% goat serum (Sigma) solution was used for blocking nonspecific antibody binding, and the optimally diluted primary antibodies were applied to cover the specimen. Slides were incubated at 4° C. overnight. After three washes in TBS-T for 5 minutes each, slides were incubated for 30 min with labeled polymer-HRP anti-rabbit secondary antibody at room temperature. Following three additional washes in TBS-T, slides were visualized using substrate-chromagen (Envision™+kit, commercially available from Dako). Sections were scanned at low magnification. Intensity of the staining as well as percentage of positive cells was recorded. Stain intensity was scored from 0 to 3+, based on the, staining intensity and percentage of positive cells were recorded.

The target of experiment [2] is phage-displayed peptide …. Briefly: phage display biopanning on plate-coated antibody, PhD 12 library, three rounds.

B1: EGFR L858R (43B2E11E5B2) rabbit monoclonal antibody (antibody, V domains shown)
VH: QSVEESGGRLVTPGTPLTLTCTVSGFSLNTYGVSWVRQAPGKGLEWIGYIFTDGQTYYASWAKGRFTISKTSSTTVDLKITSPTTEDTATYFCASVDIWGPGTPVTVSS
VL: AQVLTQTPSPVSAAVGSTVTIKCQSSPSVYSNYLSWYQQKSGQPPKQLIYDASHLASGVPSRFSGSGSGTQFTLTISGVQCDDAATYYCLGSYDCSSVDCHAFGGGTEVVVKG
notes: Rabbit monoclonal from a hybridoma clone; also called L858R RmAb; L858R-specific antibody
Consider B1, for which, in experiment [1], the binding result is given as “no binding”. Further, the Clone Frequency in experiment [2] was 1 of 9 clones.
